# ± gives the standard deviation of the averaged measurements.
# Experiment: total protein half-life in vivo (active degradation + dilution); higher = more stable protein
# [1] = wild type E. coli NCM3722, growth: C-lim chemostat, doubling time 3 h
# [2] = wild type E. coli NCM3722, growth: C-lim chemostat, doubling time 6 h
# [3] = wild type E. coli NCM3722, growth: C-lim chemostat, doubling time 12 h
# [4] = wild type E. coli NCM3722, growth: N-lim chemostat, doubling time 6 h
# [5] = E. coli NCM3722 delta-clpP delta-lon delta-hslV, growth: N-lim chemostat, doubling time 6 h
# [6] = E. coli NCM3722 delta-clpP, growth: N-lim chemostat, doubling time 6 h
# [7] = E. coli NCM3722 delta-hslV, growth: N-lim chemostat, doubling time 6 h
# [8] = E. coli NCM3722 delta-lon, growth: N-lim chemostat, doubling time 6 h
# [9] = E. coli NCM3722 delta-smpB, growth: N-lim chemostat, doubling time 6 h
# [10] = wild type E. coli NCM3722, growth: N-lim chemostat, doubling time 12 h
# [11] = wild type E. coli NCM3722, growth: P-lim chemostat, doubling time 6 h
# [12] = wild type E. coli NCM3722, growth: P-lim chemostat, doubling time 12 h
Sequence,total protein half-life in vivo [1] [h],total protein half-life in vivo [2] [h],total protein half-life in vivo [3] [h],total protein half-life in vivo [4] [h],total protein half-life in vivo [5] [h],total protein half-life in vivo [6] [h],total protein half-life in vivo [7] [h],total protein half-life in vivo [8] [h],total protein half-life in vivo [9] [h],total protein half-life in vivo [10] [h],total protein half-life in vivo [11] [h],total protein half-life in vivo [12] [h]
MSAQINNIRPEFDREIVDIVDYVMNYEISSKVAYDTAHYCLLDTLGCGLEALEYPACKKLLGPIVPGTVVPNGVRVPGTQFQLDPVQAAFNIGAMIRWLDFNDTWLAAEWGHPSDNLGGILATADWLSRNAVASGKAPLTMKQVLTAMIKAHEIQGCIALENSFNRVGLDHVLLVKVASTAVVAEMLGLTREEILNAVSLAWVDGQSLRTYRHAPNTGTRKSWAAGDATSRAVRLALMAKTGEMGYPSALTAPVWGFYDVSFKGESFRFQRPYGSYVMENVLFKISFPAEFHSQTAVEAAMTLYEQMQAAGKTAADIEKVTIRTHEACIRIIDKKGPLNNPADRDHCIQYMVAIPLLFGRLTAADYEDNVAQDKRIDALREKINCFEDPAFTADYHDPEKRAIANAITLEFTDGTRFEEVVVEYPIGHARRRQDGIPKLVDKFKINLARQFPTRQQQRILEVSLDRARLEQMPVNEYLDLYVI,3.04 ± 0.28,4.21 ± 0.07,8.53 ± 1,5.98,–,–,–,–,–,–,–,–
MAQFYSAKRRTTTRQIITVSVNDLDSFGQGVARHNGKTLFIPGLLPQENAEVTVTEDKKQYARAKVVRRLSDSPERETPRCPHFGVCGGCQQQHASVDLQQRSKSAALARLMKHDVSEVIADVPWGYRRRARLSLNYLPKTQQLQMGFRKAGSSDIVDVKQCPILAPQLEALLPKVRACLGSLQAMRHLGHVELVQATSGTLMILRHTAPLSSADREKLERFSHSEGLDLYLAPDSEILETVSGEMPWYDSNGLRLTFSPRDFIQVNAGVNQKMVARALEWLDVQPEDRVLDLFCGMGNFTLPLATQAASVVGVEGVPALVEKGQQNARLNGLQNVTFYHENLEEDVTKQPWAKNGFDKVLLDPARAGAAGVMQQIIKLEPIRIVYVSCNPATLARDSEALLKAGYTIARLAMLDMFPHTGHLESMVLFSRVK,2.96 ± 0.12,5.12 ± 0.17,9.07 ± 0.16,4.203 ± 0.032,5.4 ± 0.1,5.11 ± 0.95,4.34 ± 0.43,4.54 ± 0.058,3.9767 ± 0.00076,6.93 ± 0.14,4.49 ± 1,10.7 ± 2.4
MDRIIQSPGKYIQGADVINRLGEYLKPLAERWLVVGDKFVLGFAQSTVEKSFKDAGLVVEIAPFGGECSQNEIDRLRGIAETAQCGAILGIGGGKTLDTAKALAHFMGVPVAIAPTIASTDAPCSALSVIYTDEGEFDRYLLLPNNPNMVIVDTKIVAGAPARLLAAGIGDALATWFEARACSRSGATTMAGGKCTQAALALAELCYNTLLEEGEKAMLAAEQHVVTPALERVIEANTYLSGVGFESGGLAAAHAVHNGLTAIPDAHHYYHGEKVAFGTLTQLVLENAPVEEIETVAALSHAVGLPITLAQLDIKEDVPAKMRIVAEAACAEGETIHNMPGGATPDQVYAALLVADQYGQRFLQEWE [P0A9S5],3.07 ± 0.084,5.75 ± 0.4,11.7 ± 0.7,4.8 ± 0.91,4.72 ± 0.17,4.2 ± 0.78,4.13 ± 0.15,4.432 ± 0.034,3.52 ± 0.49,6.5 ± 0.44,6.33 ± 0.13,13 ± 0.35
MVEDILAPGLRVVFCGINPGLSSAGTGFPFAHPANRFWKVIYQAGFTDRQLKPQEAQHLLDYRCGVTKLVDRPTVQANEVSKQELHAGGRKLIEKIEDYQPQALAILGKQAYEQGFSQRGAQWGKQTLTIGSTQIWVLPNPSGLSRVSLEKLVEAYRELDQALVVRGR [P0A9H1],3.1514 ± 0.00069,5.79 ± 0.27,12.1 ± 1.1,5.18 ± 0.47,5.34 ± 0.42,5.22 ± 0.42,6.31 ± 1.5,5.677 ± 0.045,4.88 ± 0.35,8.94 ± 0.12,5.74 ± 0.3,11.7 ± 0.27
MSQVLITGATGLVGGHLLRMLINEPKVNAIAAPTRRPLGDMPGVFNPHDPQLSDALAQVTDPIDIVFCCLGTTRREAGSKEAFIHADYTLVVDTALTGRRLGAQHMLVVSAMGANAHSPFFYNRVKGEMEEALIAQNWPKLTIARPSMLLGDRSKQRMNETLFAPLFRLLPGNWKSIDARDVARVMLAESMRPEHEGVTILSSSELRKRAE,3.24 ± 0.14,–,–,5.69 ± 1.1,6.13 ± 0.065,5.36 ± 0.4,5.98 ± 0.48,6.26 ± 0.69,–,–,–,–

# Source: the supplement of paper PMC11246515
